Test results as given in the supplement of paper PMC9170038.

Test system: MS2 coat protein
Test: apparent KD of MS2 coat protein; designed switch direction (-1 OFF switch, 1 ON switch): -1; higher = weaker reporter binding
Procedure, shortened: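 Stalled E. coli RNA polymerase transcribed designed RNA switches on Illumina chips, which were then titrated with SNAP-549-labelled MS2 coat protein, doubling from 0.7 or 1.5 nM to 3 µM. Steps lasted from 0.8–1.5 h at the lowest concentration to 10–20 min at the highest. The apparent KD is each design's median over clusters of curve-fitted normalised fluorescence.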

[1] = input ligand: microRNA oligo, concentration not stated
[2] = Eterna round: R95, input ligand: microRNA oligo, concentration not stated
[3] = Eterna round: R95, input ligand: FMN 200 uM
[4] = Eterna round: R95, input ligand: none

Row | Sequence | apparent KD of MS2 coat protein (input ligand: FMN 200 uM) [nM] | apparent KD of MS2 coat protein (input ligand: none) [nM] | apparent KD of MS2 coat protein [2] [nM] | other results
1 | UACAUGAGGAUCACCCAUGUUUUGUCGUGUAUGGUAUUUAUCUAGGAUAUCAAUUGAUUAAUUUAUGAGAAGGAGAAUAUUAAU [JMF's solution 60] (Eterna round: R96, puzzle: Exclusion NG 3) | 39.9 | 34.4 | – | apparent KD of MS2 coat protein [1]: 39.1 nM
2 | AACUUCUGAGGAUAUACAUAGAUUUACAUGAGGAUCACCCAUGUUCCUCUUUGUAUAAAUGUAGAAGGCAGAAGAA [Mat - Exclusion 5 - JL Mod - D72] (Eterna round: R97, puzzle: Exclusion 5) | 349 | 203 | – | –
3 | CCCGUGUGAGGAUAUACUCUAAGCAUUGACAGUUGCUACAGGUAGAAGGCACAUGAGGAUCACCCAUGUCCCGG [EX4 C.13] (Eterna round: R97, puzzle: Exclusion 4) | 66 | 295 | – | –
4 | AGUUAUUCAGGAUAUGGUGUGUUAUACAUGAGGAUCACCCAUGUGGGUCCUGGUUUGGCCUCAGAAGGGAAUGUUA [salish99_ex5_r4_123] (Eterna round: R97, puzzle: Exclusion 5) | 507 | 600 | – | –
5 | UAUGAUUUAGGAUAUUGUACUGCUGACAUGAGGAUCACCCAUGUAUGCUAACUCGGCCGUCGAGAAGGAGAUUAUG [BotMod 29 - Jieux - Exclusion 5] (Eterna round: R97, puzzle: Exclusion 5) | 37.9 | 39.4 | – | –
6 | GUCGUGCGGCUUUGCUGUGCGAGUACAUGAGGAUCACCCAUGUAGGAUAUGGUACGCUUUGCGUGCCAGAAGGGCGUGCGUUGG [salish99_ExNG3_r04_007] (Eterna round: R96, puzzle: Exclusion NG 3) | 38 | 35.4 | – | apparent KD of MS2 coat protein [1]: 28.6 nM
7 | CUUUUGGCAGGAUAUGCUUUUUUUGACAUGAGGAUCACCCAUGUGAUGCAGUUUGGGUUUGCAGAAGGGCCUGAGU [JR_E5_Sub035] (puzzle: Exclusion 5) | – | – | 101 | –
8 | UUUUUGAUAGGAUAUACAUGAGGAUCACCCAUGUGUGACAGGACUGACGCUCUUCAUCGUAGAAGGAUCCGAGC [Eternabot (L1) Solution 97] (Eterna round: R97, puzzle: Exclusion 3) | 27.4 | 30.9 | – | –
9 | CUAGCUUCGGCUAGUACAAGCUUUUUGCUCGUCUUAUUAACAUGAGGAUCACCCAUGUCAAAGAGACCUCAUGUAUU [Sensor v3 - turn-off variant 2 - 2] (puzzle: Sensor v3, turn-off variant 2) | – | – | 15.5 | apparent KD of MS2 coat protein [3]: 347 nM; apparent KD of MS2 coat protein [4]: 572 nM
10 | UGUUGUUCAGGAUAUGAUGUAUAAUACAUGAGGAUCACCCAUGUAGAUCCUGCUUUGGCGUCAGAAGGGAAUGUUG [salish99_ex5_r4_107] (Eterna round: R97, puzzle: Exclusion 5) | 55.9 | 51.8 | – | –
11 | CCAAGCUUUUUCCUUAACAACAUGAGGAUCACCCAUGUGUAAGCUAUUCGGUUUGGGCUCUUUAGUGCUCGUCUUAU [malcom mod] (Eterna round: R97, puzzle: Sensor, turn-off variant 1) | 19.2 | 19.7 | – | –
12 | GUGUACAGAGGAUAUGCACGAGUAGUUACGAAAGUAACUGCACAUGAGGAUCACCCAUGUAGAAGGCUGUACAC [Dot plot directed v4] (puzzle: Exclusion 2) | – | – | 15.4 | –
13 | CAGAAGUGAGGAUAUAUAUGUAAGUUUGAUCCAACAAGUAUACAUGAGGAUCACCCAUGUAGAAGGUGCUUCCC [Eternabot (L2) Solution 45] (Eterna round: R97, puzzle: Exclusion 2) | 57.2 | 44.6 | – | –
14 | UAAAUGUGAGGAUAUCAGGUGUGCUAGCGUACUGGUACAUCUGAGAAGGCACAUGAGGAUCACCCAUGUUCCUU [Mat - Exclusion 4 - Mod of JL - D49] (puzzle: Exclusion 4) | – | – | 16.7 | –
15 | GCAGCUUAGUUAACAGACUGUUACAUGAGGAUCACCCAUGUGCAGGAUAUGGUCUGGAUUACAGGCCAGAAGGGUACAGGCUGC [Eli exng3 - 017] (Eterna round: R96, puzzle: Exclusion NG 3) | 10.8 | 13.4 | – | apparent KD of MS2 coat protein [1]: 6.6 nM
16 | AUGCUCCGUGUAGGAUAUCGCCGUAUUAUUCGGCGAGAAGGACAUGAGGAUCACCCAUGUAUGUUAUUAUCACGUGUGGCGCGC [Design 47] (Eterna round: R96, puzzle: Exclusion NG 1) | 41.8 | 21.8 | – | apparent KD of MS2 coat protein [1]: 13.6 nM
17 | CUUAAGUUAGGAUAUGCGCUACGGAAUCGUGGUUAUAGAUAGCAGAAGGAACUUGAGGAUCACCCAAGUAAAUA [Reerored] (Eterna round: R97, puzzle: Exclusion 4) | 116 | 137 | – | –
18 | CGCCUGUUAGGAUAUUAGUAGUAGUCAGAAUAGACUAUUACUGAGAAGGGACAUGAGGAUCACCCAUGUUGGCG [Eli x4 4.12] (Eterna round: R97, puzzle: Exclusion 4) | 22.2 | 18.8 | – | –

Row | Sequence | apparent KD of MS2 coat protein (input ligand: FMN 200 uM) [nM] | apparent KD of MS2 coat protein (input ligand: none) [nM] | apparent KD of MS2 coat protein [2] [nM] | other results
19 | AAAAAACAUGAGGAUCACCCAUGUGAGGAUAUGAUGCGAAUAAAGAAAGAAGAAAGCAUCAGAAGGCACAUAUG [Mod of Disincluded 3 (little more stable fmn state)] (Eterna round: R96, puzzle: Exclusion 1) | – | – | – | apparent KD of MS2 coat protein [1]: 66.6 nM
20 | AGGUAACAUGAGGAUCACCCAUGUCAGGAUAUCAUGAAGAGUAGAUUAGAGGAGAGGUUGAGAAGGGACUAUAU [Excluse me! 15 - Jieux - Exclusion 1] (puzzle: Exclusion 1) | – | – | 38.5 | –
21 | GGUGCGAGUGUGAGGAUAUGCUGGUCGUAAGAUCAGCAGAAGGCACAUGAGGAUCACCCAUGUGAAAACGUACC [Mat - Exclusion 4 - JL Mod - D75] (puzzle: Brourd's mod of Exclusion 4) | – | – | 18.8 | –
22 | GUCAGCUCGUGAGGAUAUGAACAUGAGGAUCACCCAUGUAAGAUCAAGCUGCUUCGGCAGCAAGUUCAGAAGGUACGAGCUGAU [ENG2/10-C2] (Eterna round: R96, puzzle: Exclusion NG 2) | 243 | 122 | – | apparent KD of MS2 coat protein [1]: 93.3 nM
23 | AAGAAACAUGAGGAUCACCCAUGUGAGGAUAUGAGUAAGAAAAGAAAAGAAAGAAGAGUCAGAAGGCACAAAGG [salish99-ex1_r3_060] (puzzle: Exclusion 1) | – | – | 35.4 | apparent KD of MS2 coat protein [3]: 49.5 nM; apparent KD of MS2 coat protein [4]: 41.5 nM
24 | ACUGGUCGAGGAUAUACAAUCGUGCUUCGGCACGUAAGAUCACAUGAGGAUCACCCAUGUAGAAGGUGACCAGU [E2/1-B2] (Eterna round: R97, puzzle: Exclusion 2) | 135 | 28.3 | – | –
25 | CCUCUGGUAGGAUAUACUGGUGGCGGCAUUAUCGUGAAGGUACAUGAGGAUCACCCAUGUAGAAGGGCUCAAGU [Eternabot (L2) Solution 83] (Eterna round: R97, puzzle: Exclusion 2) | 38.3 | 37.1 | – | –
26 | GAUUAUGCGAGCUUUAGGGACAUGAGGAUCACCCAUGUUCGUCUUAUUGGUCUAAGUGCACUGACAUACCUAAAUCU [JMF 84] (puzzle: Sensor v3, turn-off variant 1) | – | – | 31.5 | apparent KD of MS2 coat protein [3]: 20.2 nM; apparent KD of MS2 coat protein [4]: 19.6 nM
27 | UAUGGUUAAGUCAGGAUAUGCUCAUAGAGGUCUAUGCAGAAGGGACAUGAGGAUCACCCAUGUAUGGUCGUGUU [Ex4 #64] (Eterna round: R97, puzzle: Brourd's mod of Exclusion 4) | 84.6 | 53.6 | – | –
28 | AGAUCACAUGAGGAUCACCCAUGUCAGGAUAUGAUACUAUGUACUUCGGUACAUAGUAUCAGAAGGGAUAUAAA [Ex1-3: 68] (puzzle: Exclusion 1) | – | – | 75.1 | –
29 | AUCAUGUUAGGAUAUUACGACGCAGCGGGUAGCCCGUAAAGUAAGAAGGAACAUGAGGAUCACCCAUGUUCAAA [EX4 B.22] (Eterna round: R97, puzzle: Exclusion 4) | 32.8 | 19.6 | – | –
30 | UAUUAGCAAGUGAGAUCCCACAUGAGGAUCACCCAUGUGCUCGUCUUAUAAGGUACUGUGACGAAAGUCACGGUACC [Sensor 3, v1 - 91 v1] (Eterna round: R97, puzzle: Sensor, turn-off variant 1) | 56.2 | 47.6 | – | –
31 | GUGAUCUAUCAUGUAAUAAACAUGAGGAUCACCCAUGUAGACAAGUUUUUUGCUCGUCUUAUAAUAAGAUAGAUCAC [Antenna 15 - Jieux - Sensor, turn-off variant 1] (Eterna round: R97, puzzle: Sensor, turn-off variant 1) | 16.3 | 15.9 | – | –
32 | AAGGAUAGAGGAUAUACGUAGAUACAGAUUCAUGUAGAACUACAUGAGGAUCACCCAUGUAGAAGGCUAUCCUA [Fiskers Ex 2 - 6] (puzzle: Exclusion 2) | – | – | 26.5 | –
33 | GAUUAACAUGAGGAUCACCCAUGUGAGGAUAUGGACUUGCCCACUUAACCAUUAGAGUCUAGAAGGCGCAUCUG [1986#25] (Eterna round: R97, puzzle: Exclusion 1) | 32.9 | 29.8 | – | –
34 | AAUUCACAUGAGGAUCACCCAUGUCAGGAUAUGGUUUCACGUUUUUCUUUGCUUGAGGCCAGAAGGGACAGCUA (puzzle: Exclusion 1) | – | – | 54.2 | –
35 | ACAAGCUUUUUGCUCGUCUACAUGAGGAUCACCCAUGUAGUGAGAUAGUGGUGAAGAUAGAUUGAGCGUAGUAGGUA [JR_SV3TOV1_Sub071] (puzzle: Sensor v3, turn-off variant 1) | – | – | 51.7 | apparent KD of MS2 coat protein [3]: 26.9 nM; apparent KD of MS2 coat protein [4]: 21.5 nM
